Assay results: paper PMC7857489, “Degradation of MinD oscillator complexes by Escherichia coli ClpXP” (The Journal of Biological Chemistry, 2020)

T1: MinD(R3E) (E. coli, UniProt P0AEZ3 1-270, R3E)
T1 construct: MinD of Escherichia coli with Arg 3 changed to glutamate by site-directed mutagenesis; Same construct as m1 apart from R3E; source: E. coli BL21 (λDE3), overexpressed from a plasmid (pEt-MinD(R3E)), purified
T1 sequence (looked up): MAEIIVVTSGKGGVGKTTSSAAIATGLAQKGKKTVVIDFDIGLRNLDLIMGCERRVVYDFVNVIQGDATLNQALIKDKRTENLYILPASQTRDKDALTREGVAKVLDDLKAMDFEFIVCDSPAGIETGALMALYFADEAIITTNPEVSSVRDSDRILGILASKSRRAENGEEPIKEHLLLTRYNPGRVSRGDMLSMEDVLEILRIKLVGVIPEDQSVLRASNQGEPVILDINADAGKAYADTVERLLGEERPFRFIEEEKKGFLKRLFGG


Experiments:
ClpX = biological target: T2, ClpX (E. coli, UniProt P0A6H1 1-424); assay: negative-stain transmission electron microscopy; MinC (4 μM), MinD or MinD(R3E) (8 μM), ATP (8 mM), with or without ClpXP, or ClpXP with ATP alone, in copolymer assembly buffer; carbon/formvar grids, fixed with glutaraldehyde, stained with uranyl acetate; details: both partners purified
T2 construct: ClpX, AAA+ unfoldase of Escherichia coli; concentrations are reported as ClpX hexamers; Purified as a native protein by earlier published methods; also called wildtype ClpX; source: E. coli BL21 (λDE3), overexpressed from a plasmid, purified as native protein

MinD(R3E) = biological target: T1, MinD(R3E); assay: 90° light scatter; MinC (4 μM) and MinD or MinD(R3E) (8 μM) in 20 mM MES pH 6.5, 100 mM KCl, 10 mM MgCl2; after 5 min ATP added alone or with ClpX (0.75 μM), ClpX(E185Q) (0.75 μM), ClpP (0.9 μM) or ClpX and ClpP, with an ATP-regenerating system; monitored for 30 min more; details: both partners purified

Row | Binder | binding result (ClpX) | binding result (MinD(R3E))
1 | ClpP (enzyme, ClpP, serine protease of Escherichia coli; concentrations are reported as ClpP tetradecamers; Purified as a native protein by earlier published methods; source: E. coli BL21 (λDE3), overexpressed from a plasmid, purified as native protein; copies: 14) not shown | binds | –
2 | MinC (natural protein, E. coli, UniProt P18196 1-231, looked up, concentrations are reported as MinC dimers; Purified as a native protein by earlier published methods; source: E. coli BL21 (λDE3), overexpressed from a plasmid (pEt-MinC), purified as native protein) MSNTPIELKGSSFTLSVVHLHEAEPKVIHQALEDKIAQAPAFLKHAPVVLNVSALEDPVNWSAMHKAVSATGLRVIGVSGCKDAQLKAEIEKMGLPILTEGKEKAPRPAPTPQAPAQNTTPVTKTRLIDTPVRSGQRIYAPQCDLIVTSHVSAGAELIADGNIHVYGMMRGRALAGASGDRETQIFCTNLMAELVSIAGEYWLSDQIPAEFYGKAARLQLVENALTVQPLN | – | binds
